In patent publication EP4248993A1 (Charité - Universitätsmedizin Berlin, dated 2023):

Key:
[1] = target: MERS-CoV RBD Twin-Strep His (wild type, G372-L588) (MERS-CoV); assay: ELISA (Figure 6A)
[2] = target: MERS-CoV RBD Twin-Strep His (wild type, G372-L588) (MERS-CoV); assay: BLI, RBD Twin-Strep His on anti-Penta-His biosensor, global 1:1 fit
[3] = target: MERS-CoV RBD Twin-Strep His (wild type, G372-L588) (MERS-CoV); assay: as above; remark: listed apart in the source

B1: recombinant mouse DPP4 (mDPP4) (receptor)
chain: SKDEAAADSRRTYSLADYLKSTFRVKSYSLWWVSDFEYLYKQENNILLLNAEHGNSSIFLENSTFESFGYHSVSPDRLFVLLEYNYVKQWRHSYTASYNIYDVNKRQLITEEKIPNNTQWITWSPEGHKLAYVWKNDIYVKVEPHLPSHRITSTGEENVIYNGITDWVYEEEVFGAYSALWWSPNNTFLAYAQFNDTGVPLIEYSFYSDESLQYPKTVWIPYPKAGAVNPTVKFFIVNIDSLSSSSSAAPIQIPAPASVARGDHYLCDVVWATEERISLQWLRRIQNYSVMAICDYDKINLTWNCPSEQQHVEMSTTGWVGRFRPAEPHFTSDGSSFYKIISDKDGYKHICHFPKDKKDCTFITKGAWEVISIEALTSDYLYYISNQYKEMPGGRNLYKIQLTDHTNVKCLSCDLNPERCQYYAVSFSKEAKYYQLGCWGPGLPLYTLHRSTDHKELRVLEDNSALDRMLQDVQMPSKKLDFIVLNETRFWYQMILPPHFDKSKKYPLLLDVYAGPCSQKADASFRLNWATYLASTENIIVASFDGRGSGYQGDKIMHAINRRLGTLEVEDQIEAARQFVKMGFVDSKRVAIWGWSYGGYVTSMVLGSGSGVFKCGIAVAPVSRWEYYDSVYTERYMGLPIPEDNLDHYRNSTVMSRAEHFKQVEYLLIHGTADDNVHFQQSAQISKALVDAGVDFQAMWYTDEDHGIASSTAHQHIYSHMSHFLQQCFSLH
B1: no binding [1].

B2: recombinant human DPP4 with N-terminal 8xHis-tag (hDPP4-N'His) (receptor)
chain: HHHHHHHHGGGSGGGSGGGSDSRKTYTLTDYLKNTYRLKLYSLRWISDHEYLYKQENNILVFNAEYGNSSVFLENSTFDEFGHSINDYSISPDGQFILLEYNYVKQWRHSYTASYDIYDLNKRQLITEERIPNNTQWVTWSPVGHKLAYVWNNDIYVKIEPNLPSYRITWTGKEDIIYNGITDWVYEEEVFSAYSALWWSPNGTFLAYAQFNDTEVPLIEYSFYSDESLQYPKTVRVPYPKAGAVNPTVKFFVVNTDSLSSVTNATSIQITAPASMLIGDHYLCDVTWATQERISLQWLRRIQNYSVMDICDYDESSGRWNCLVARQHIEMSTTGWVGRFRPSEPHFTLDGNSFYKIISNEEGYRHICYFQIDKKDCTFITKGTWEVIGIEALTSDYLYYISNEYKGMPGGRNLYKIQLSDYTKVTCLSCELNPERCQYYSVSFSKEAKYYQLRCSGPGLPLYTLHSSVNDKGLRVLEDNSALDKMLQNVQMPSKKLDFIILNETKFWYQMILPPHFDKSKKYPLLLDVYAGPCSQKADTVFRLNWATYLASTENIIVASFDGRGSGYQGDKIMHAINRRLGTFEVEDQIEAARQFSKMGFVDNKRIAIWGWSYGGYVTSMVLGSGSGVFKCGIAVAPVSRWEYYDSVYTERYMGLPTPEDNLDHYRNSTVMSRAENFKQVEYLLIHGTADDNVHFQQSAQISKALVDVGVDFQAMWYTDEDHGIASSTAHQHIYTHMSHFIKQCFSLP
notes: range 38-766
B2 showed a Kd [2] of 7.8 nM.

B3: recombinant rabbit DPP4 with C-terminal 6xHis-tag (rbDPP4-His) (receptor)
chain: NKGNHEYLHRQEDNILLFNAEYGNSSLFLANITFDEFGHSITDYSVSPDRLFLLLEYNYVKQWRHSYTASYDIYDLNKRQLITEERIPNNTQWITWAPEGHRLAYVWNNDIYVKLEPNLPSQRITWTGKADVIYNGITDWVYEEEVFSAYSALWWSPNGTFLAYAQFNDTGVPLIEYSFYSDEALQYPKTVRIPYPKAGAVNPTVRFFVVNTDSLSSITNATSVQITAPASMLIGDHYLCDVTWVTHERISLQWLRRIQNYSVMDICDYDRSSGRWNCLVARQHIEMSTTGWVGRFRPAEPHFTSDGNSFYKIMSNEEGYKHICYSLIDNQSCTFITRGAWEVIGIEALTSDYLYYISNEYKGMPGGRNLYKIQLTDHTKVTCLSCELKPERCQYYSVSFGKGAKYYQLRCSGPGLPLYTLHSSVNDQELRVLEDNSALDEMLQDVQMPSKTLDFIILNETKFWYQMVLPPHFDKSKKYPLLLEVYAGPCSQRADAIFRLNWATYLASTENIIVASFDGRGSGYQGDKIMHAINRRLGTLEVEDQIEAARQFSKMGFVDNERIAIWGWSYGGYVTSMVLGSGSGVFKCGIAVAPVSRWEYYDSIYTERYMGLPTPEDNLDHYRNSTVMSRAENFKQVEYLLIHGTADDNVHFQQSAQISKALVDAGVDFQAMWYTDEDHGIDSSTAHQHIYTHMSHFIKQCFSLHHHHHH
For B3, the Kd [3] was 34.3 nM.
